Laboratory results: paper PMC5394233, “Structural and functional analysis of the human POT1-TPP1 telomeric complex” (Nature Communications, 2017)

Assays:
flPOT1 L343F;TPP1(87) = flPOT1 L343F;TPP1(87) (Homo sapiens;Homo sapiens, UniProt Q9NUX5;Q96AP0 1-634;1-458, L343F|); assay: fluorescence polarization; wild-type affinity stated; FP: 20 mM Hepes pH 7.5, 100 mM KCl, 2 mM MgCl2, 1 mM EDTA, 2 mM DTT, 1 mg/ml BSA, 5% glycerol, 75 nM polyT50 competitor, 2.5 nM probe, room temperature 30 min; conditions: protein: recombinant;recombinant, tags: N-terminal His6-pMocr, TEV-cleaved;N-terminal His6-MBP, copies: 1;1, label: 5' 6-FAM, single strand
flPOT1 A532P;TPP1(87) = flPOT1 A532P;TPP1(87) (Homo sapiens;Homo sapiens, UniProt Q9NUX5;Q96AP0 1-634;1-458, A532P|); assay: as above; conditions: protein: recombinant;recombinant, tags: N-terminal His6-pMocr, TEV-cleaved;N-terminal His6-MBP, copies: 1;1, label: 5' 6-FAM, single strand
flPOT1 R477T;TPP1(87) = flPOT1 R477T;TPP1(87) (Homo sapiens;Homo sapiens, UniProt Q9NUX5;Q96AP0 1-634;1-458, R477T|); assay: as above; conditions: protein: recombinant;recombinant, tags: N-terminal His6-pMocr, TEV-cleaved;N-terminal His6-MBP, copies: 1;1, label: 5' 6-FAM, single strand
flPOT1 WT;TPP1(87) = flPOT1 WT;TPP1(87) (Homo sapiens;Homo sapiens, UniProt Q9NUX5;Q96AP0 1-634;1-458, |); assay: fluorescence polarization; FP: 20 mM Hepes pH 7.5, 100 mM KCl, 2 mM MgCl2, 1 mM EDTA, 2 mM DTT, 1 mg/ml BSA, 5% glycerol, 75 nM polyT50 competitor, 2.5 nM probe, room temperature 30 min; conditions: protein: recombinant;recombinant, tags: N-terminal His6-pMocr, TEV-cleaved;N-terminal His6-MBP, copies: 1;1, label: 5' 6-FAM, single strand
flPOT1 P475L;TPP1(87) = flPOT1 P475L;TPP1(87) (Homo sapiens;Homo sapiens, UniProt Q9NUX5;Q96AP0 1-634;1-458, P475L|); assay: as above; conditions: protein: recombinant;recombinant, tags: N-terminal His6-pMocr, TEV-cleaved;N-terminal His6-MBP, copies: 1;1, label: 5' 6-FAM, single strand
flPOT1 C591W = target: T1, flPOT1 C591W (Homo sapiens, UniProt Q9NUX5 1-634, C591W); assay: as above; conditions: protein: recombinant; tags: N-terminal His6-pMocr, TEV-cleaved; label: 5' 6-FAM; single strand
T1 sequence: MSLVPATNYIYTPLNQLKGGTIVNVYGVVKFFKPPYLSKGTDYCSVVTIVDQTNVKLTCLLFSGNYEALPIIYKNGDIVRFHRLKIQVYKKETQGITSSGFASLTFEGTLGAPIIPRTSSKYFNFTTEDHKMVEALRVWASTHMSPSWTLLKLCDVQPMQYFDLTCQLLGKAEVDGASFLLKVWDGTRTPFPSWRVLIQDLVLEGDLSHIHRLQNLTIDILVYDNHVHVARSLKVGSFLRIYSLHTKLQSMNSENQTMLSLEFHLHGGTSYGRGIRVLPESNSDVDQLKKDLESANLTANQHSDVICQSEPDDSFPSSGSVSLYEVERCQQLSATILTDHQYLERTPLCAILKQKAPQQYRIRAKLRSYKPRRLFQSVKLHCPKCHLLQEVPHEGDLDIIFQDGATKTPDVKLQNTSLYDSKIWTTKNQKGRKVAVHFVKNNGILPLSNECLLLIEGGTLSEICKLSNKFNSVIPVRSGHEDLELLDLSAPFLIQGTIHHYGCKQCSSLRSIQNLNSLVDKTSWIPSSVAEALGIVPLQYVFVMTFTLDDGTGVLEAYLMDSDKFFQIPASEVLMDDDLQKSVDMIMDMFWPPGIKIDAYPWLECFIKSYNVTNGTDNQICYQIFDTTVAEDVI

flPOT1 P446Q = target: T2, flPOT1 P446Q (Homo sapiens, UniProt Q9NUX5 1-634, P446Q); assay: as above; conditions: protein: recombinant; tags: N-terminal His6-pMocr, TEV-cleaved; label: 5' 6-FAM; single strand
T2 sequence: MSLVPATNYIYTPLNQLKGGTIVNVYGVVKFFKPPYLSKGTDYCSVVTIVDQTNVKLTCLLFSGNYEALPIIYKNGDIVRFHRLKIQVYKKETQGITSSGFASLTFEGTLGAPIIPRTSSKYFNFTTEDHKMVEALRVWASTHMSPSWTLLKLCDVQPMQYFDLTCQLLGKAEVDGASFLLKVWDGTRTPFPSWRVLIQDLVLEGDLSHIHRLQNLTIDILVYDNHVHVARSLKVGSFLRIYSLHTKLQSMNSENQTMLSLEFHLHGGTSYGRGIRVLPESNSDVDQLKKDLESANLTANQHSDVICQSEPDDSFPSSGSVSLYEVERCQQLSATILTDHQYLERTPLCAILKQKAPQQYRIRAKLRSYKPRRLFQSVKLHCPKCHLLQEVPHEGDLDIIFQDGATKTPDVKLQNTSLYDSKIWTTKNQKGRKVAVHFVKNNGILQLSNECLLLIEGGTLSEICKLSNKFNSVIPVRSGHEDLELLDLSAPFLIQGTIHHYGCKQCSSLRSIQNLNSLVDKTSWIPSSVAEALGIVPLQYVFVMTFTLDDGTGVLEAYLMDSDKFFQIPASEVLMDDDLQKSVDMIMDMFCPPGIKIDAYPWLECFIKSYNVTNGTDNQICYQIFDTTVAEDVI

POT1C;TPP1(PBD) = POT1C;TPP1(PBD) (Homo sapiens;Homo sapiens, UniProt Q9NUX5;Q96AP0 330-634;169-251, |); assay: fluorescence polarization; up to 5 uM protein; FP: 20 mM Hepes pH 7.5, 100 mM KCl, 2 mM MgCl2, 1 mM EDTA, 2 mM DTT, 1 mg/ml BSA, 5% glycerol, 75 nM polyT50 competitor, 2.5 nM probe, room temperature 30 min; conditions: protein: recombinant;recombinant; tags: N-terminal His6-pMocr, TEV-cleaved;N-terminal His6, TEV-cleaved; copies: 1;1; label: 5' 6-FAM; single strand
Chain of POT1C;TPP1(PBD) (Q96AP0 169-251, one chain of several): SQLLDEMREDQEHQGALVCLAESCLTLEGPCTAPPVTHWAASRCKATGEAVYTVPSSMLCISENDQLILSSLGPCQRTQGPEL

Chain of flPOT1 WT;TPP1(87) (Q9NUX5 whole entry, chain 1 of 2): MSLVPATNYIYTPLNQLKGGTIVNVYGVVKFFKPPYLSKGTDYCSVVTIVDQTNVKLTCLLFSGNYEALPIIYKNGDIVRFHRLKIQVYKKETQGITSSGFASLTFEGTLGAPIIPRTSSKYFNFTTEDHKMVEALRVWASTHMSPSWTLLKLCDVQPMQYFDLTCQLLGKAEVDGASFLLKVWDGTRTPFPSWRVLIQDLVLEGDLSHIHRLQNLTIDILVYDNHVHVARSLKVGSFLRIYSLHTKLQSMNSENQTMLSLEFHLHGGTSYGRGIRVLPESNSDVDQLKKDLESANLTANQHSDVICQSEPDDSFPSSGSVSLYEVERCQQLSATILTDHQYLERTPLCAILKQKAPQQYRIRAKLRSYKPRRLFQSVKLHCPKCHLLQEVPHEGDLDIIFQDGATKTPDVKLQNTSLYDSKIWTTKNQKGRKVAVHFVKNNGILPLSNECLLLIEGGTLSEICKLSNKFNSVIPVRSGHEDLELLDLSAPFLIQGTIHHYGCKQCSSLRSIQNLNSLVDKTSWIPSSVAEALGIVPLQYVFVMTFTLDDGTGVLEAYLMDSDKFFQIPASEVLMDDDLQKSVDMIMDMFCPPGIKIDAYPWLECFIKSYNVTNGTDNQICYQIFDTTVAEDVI
Chain of flPOT1 WT;TPP1(87) (Q96AP0 whole entry, chain 2 of 2): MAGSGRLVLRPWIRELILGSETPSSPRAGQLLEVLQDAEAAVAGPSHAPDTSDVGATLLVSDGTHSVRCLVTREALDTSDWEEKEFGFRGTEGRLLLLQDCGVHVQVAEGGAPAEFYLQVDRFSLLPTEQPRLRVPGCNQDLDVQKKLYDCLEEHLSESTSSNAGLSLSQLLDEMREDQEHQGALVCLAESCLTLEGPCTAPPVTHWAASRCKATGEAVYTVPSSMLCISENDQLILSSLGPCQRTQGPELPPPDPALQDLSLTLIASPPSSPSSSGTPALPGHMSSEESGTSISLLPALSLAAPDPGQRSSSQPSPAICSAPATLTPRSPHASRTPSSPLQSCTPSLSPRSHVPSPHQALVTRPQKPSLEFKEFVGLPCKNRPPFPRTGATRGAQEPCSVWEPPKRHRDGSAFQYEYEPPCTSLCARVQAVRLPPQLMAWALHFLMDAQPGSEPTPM
Chain of flPOT1 A532P;TPP1(87) (Q96AP0 whole entry, stated change not applied, one chain of several): as the sequence (Q96AP0 whole entry, chain 2 of 2) above
Chain of flPOT1 R477T;TPP1(87) (Q96AP0 whole entry, stated change not applied, one chain of several): as the sequence (Q96AP0 whole entry, chain 2 of 2) above
Chain of flPOT1 L343F;TPP1(87) (Q96AP0 whole entry, stated change not applied, one chain of several): as the sequence (Q96AP0 whole entry, chain 2 of 2) above
Chain of flPOT1 P475L;TPP1(87) (Q9NUX5 whole entry P475L, chain 1 of 2): as the sequence (Q9NUX5 whole entry, chain 1 of 2) above, with P475L counted along it
Chain of flPOT1 P475L;TPP1(87) (Q96AP0 whole entry, chain 2 of 2): as the sequence (Q96AP0 whole entry, chain 2 of 2) above

TTAGGGTTAGGGTTAGGG (ssDNA) [telomeric 18mer (TTAGGG)3]: binds (flPOT1 L343F;TPP1(87)); binds (flPOT1 A532P;TPP1(87)); binds (flPOT1 R477T;TPP1(87)). The Kd (flPOT1 WT;TPP1(87)) was roughly 5.8 nM, the Kd (flPOT1 P475L;TPP1(87)) was 10.7 ± 1.4 nM and the Kd (flPOT1 C591W) was roughly 20 nM. The Kd (flPOT1 P446Q) was roughly 20 nM and the binding result (POT1C;TPP1(PBD)) was “no binding”.
